The values that follow come from article PMC9389836.

Experiment in all cases: SEC
Assay [1] deals with SARS-CoV-2 Nsp15 A93S (SARS-CoV-2).
Assay [2] concerns the target SARS-CoV-2 Nsp15 D133Y (SARS-CoV-2).
Assay [3] addresses SARS-CoV-2 Nsp15 G18E (SARS-CoV-2).
Assay [4] deals with SARS-CoV-2 Nsp15 G18R (SARS-CoV-2).
Assay [5] has as its target SARS-CoV-2 Nsp15 H235Y (SARS-CoV-2).
Assay [6] deals with SARS-CoV-2 Nsp15 K13N (SARS-CoV-2).
The target in assay [7] is SARS-CoV-2 Nsp15 K13R (SARS-CoV-2).
The target of assay [8] is SARS-CoV-2 Nsp15 K290N (SARS-CoV-2).
For assay [9], the target named is SARS-CoV-2 Nsp15 L163F (SARS-CoV-2).
In assay [10] the target is SARS-CoV-2 Nsp15 P206S (SARS-CoV-2).
The target of assay [11] is SARS-CoV-2 Nsp15 R207S (SARS-CoV-2).
The target of assay [12] is SARS-CoV-2 Nsp15 T34I (SARS-CoV-2).
For assay [13], the target named is SARS-CoV-2 Nsp15 T113I (SARS-CoV-2).
Assay [14] has as its target SARS-CoV-2 Nsp15 T115A (SARS-CoV-2).
In assay [15] the target is SARS-CoV-2 Nsp15 V128F (SARS-CoV-2).
Assay [16] concerns the target SARS-CoV-2 Nsp15 V321M (SARS-CoV-2).
Assay [17] deals with SARS-CoV-2 Nsp15 W333C (SARS-CoV-2).

In the case of SARS-CoV-2 Nsp15 A93S (enzyme), the hexamer/monomer ratio in assay [1] is 0.49.

For SARS-CoV-2 Nsp15 D133Y (enzyme), the hexamer/monomer ratio in assay [2] stood at 0.48. SARS-CoV-2 Nsp15 G18E (enzyme): in assay [3], the hexamer/monomer ratio was 0.56. Regarding SARS-CoV-2 Nsp15 G18R (enzyme), the hexamer/monomer ratio in [4] came to 0.88. As to SARS-CoV-2 Nsp15 H235Y (enzyme), in assay [5], the hexamer/monomer ratio came to 1.61. On to SARS-CoV-2 Nsp15 K13N (enzyme), for which the hexamer/monomer ratio in assay [6] turned out to be 0.63. Regarding SARS-CoV-2 Nsp15 K13R (enzyme), in assay [7], the hexamer/monomer ratio is 1.18. As to SARS-CoV-2 Nsp15 K290N (enzyme), the hexamer/monomer ratio in assay [8] came to 2.12. Regarding SARS-CoV-2 Nsp15 L163F (enzyme), in assay [9], the hexamer/monomer ratio came to 0.23. Take SARS-CoV-2 Nsp15 P206S (enzyme): the hexamer/monomer ratio in assay [10] amounted to 2.49. On to SARS-CoV-2 Nsp15 R207S (enzyme), for which, in [11], the hexamer/monomer ratio was 0.14.

For the substance SARS-CoV-2 Nsp15 T34I (enzyme), in assay [12], the hexamer/monomer ratio came out at 1.01. For the substance SARS-CoV-2 Nsp15 T113I (enzyme), the hexamer/monomer ratio in assay [13] was 1.79. On to SARS-CoV-2 Nsp15 T115A (enzyme), for which the hexamer/monomer ratio in assay [14] was 0.55. On to SARS-CoV-2 Nsp15 V128F (enzyme), for which the hexamer/monomer ratio in assay [15] worked out at 0.5. As for SARS-CoV-2 Nsp15 V321M (enzyme), the hexamer/monomer ratio in assay [16] worked out at 0.65.

For SARS-CoV-2 Nsp15 W333C (enzyme), the hexamer/monomer ratio in assay [17] stood at 0.77.
